How the values were obtained:
human IL-18BP = biological target: T1, human IL-18BP (human, UniProt O95998 31-194); test: BLI, apparent KD
T1 construct: UniProt printed as 095998; also called hIL-18BP
T1 sequence: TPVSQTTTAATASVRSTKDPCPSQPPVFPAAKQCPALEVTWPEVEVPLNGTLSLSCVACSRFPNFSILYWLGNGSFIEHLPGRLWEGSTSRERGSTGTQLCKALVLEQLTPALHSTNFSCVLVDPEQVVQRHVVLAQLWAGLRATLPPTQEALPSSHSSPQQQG

cynomolgus IL-18BP = biological target: T2, cynomolgus IL-18BP (cynomolgus monkey); test: BLI, apparent KD
T2 construct: also called cyno IL-18BP; cyIL-18BP
T2 chain: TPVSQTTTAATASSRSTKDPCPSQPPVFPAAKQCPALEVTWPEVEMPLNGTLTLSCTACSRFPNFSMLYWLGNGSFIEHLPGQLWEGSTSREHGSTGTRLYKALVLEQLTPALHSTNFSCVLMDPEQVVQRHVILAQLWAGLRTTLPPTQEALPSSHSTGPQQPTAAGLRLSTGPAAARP

B1: SA301a HC-H52V (antibody, name in Kabat numbering, V domains shown)
VH: QVQLQESGPGLVKPSQTLSLTCTVSGYSITSDYNSHWIRQPPGKGLEWIGYIVYSGSTNYNPSLKSRVTISRDTSKNQFSLKLSSVTAADTAVYYCARNYGSIYVNYFDYWGQGTLVTVSS
VL: EIVLTQSPATLSLSPGERATLSCSASSSVSYMYWYQQKPGQAPRPLIYRTSNLASGIPARFSGSGSGTDFTLTISSLEPEDFAVYYCQQYHSYPTFGGGTKVEIK
notes: IgG1 kappa
With B1 the Kd (human IL-18BP) was 0.34 nM and the Kd (cynomolgus IL-18BP) was 0.88 nM.

B2: SA301a HC-I51P (antibody, name in Kabat numbering, V domains shown)
VH: QVQLQESGPGLVKPSQTLSLTCTVSGYSITSDYNSHWIRQPPGKGLEWIGYPHYSGSTNYNPSLKSRVTISRDTSKNQFSLKLSSVTAADTAVYYCARNYGSIYVNYFDYWGQGTLVTVSS
VL: EIVLTQSPATLSLSPGERATLSCSASSSVSYMYWYQQKPGQAPRPLIYRTSNLASGIPARFSGSGSGTDFTLTISSLEPEDFAVYYCQQYHSYPTFGGGTKVEIK
notes: IgG1 kappa
B2 gave a Kd (human IL-18BP) of 3.73 nM and a Kd (cynomolgus IL-18BP) of 1.93 nM.

B3: SA301a HC-I51D (antibody, name in Kabat numbering, V domains shown)
VH: QVQLQESGPGLVKPSQTLSLTCTVSGYSITSDYNSHWIRQPPGKGLEWIGYDHYSGSTNYNPSLKSRVTISRDTSKNQFSLKLSSVTAADTAVYYCARNYGSIYVNYFDYWGQGTLVTVSS
VL: EIVLTQSPATLSLSPGERATLSCSASSSVSYMYWYQQKPGQAPRPLIYRTSNLASGIPARFSGSGSGTDFTLTISSLEPEDFAVYYCQQYHSYPTFGGGTKVEIK
notes: IgG1 kappa
For B3, the Kd (human IL-18BP) was 1.99 nM and the Kd (cynomolgus IL-18BP) was 2.17 nM.

B4: SA301a HC-I51V (antibody, name in Kabat numbering, V domains shown)
VH: QVQLQESGPGLVKPSQTLSLTCTVSGYSITSDYNSHWIRQPPGKGLEWIGYVHYSGSTNYNPSLKSRVTISRDTSKNQFSLKLSSVTAADTAVYYCARNYGSIYVNYFDYWGQGTLVTVSS
VL: EIVLTQSPATLSLSPGERATLSCSASSSVSYMYWYQQKPGQAPRPLIYRTSNLASGIPARFSGSGSGTDFTLTISSLEPEDFAVYYCQQYHSYPTFGGGTKVEIK
notes: IgG1 kappa
Work on B4 yielded a Kd (human IL-18BP) of 0.3 nM and a Kd (cynomolgus IL-18BP) of 0.55 nM.

B5: SA301a HC-I51T (antibody, name in Kabat numbering, V domains shown)
VH: QVQLQESGPGLVKPSQTLSLTCTVSGYSITSDYNSHWIRQPPGKGLEWIGYTHYSGSTNYNPSLKSRVTISRDTSKNQFSLKLSSVTAADTAVYYCARNYGSIYVNYFDYWGQGTLVTVSS
VL: EIVLTQSPATLSLSPGERATLSCSASSSVSYMYWYQQKPGQAPRPLIYRTSNLASGIPARFSGSGSGTDFTLTISSLEPEDFAVYYCQQYHSYPTFGGGTKVEIK
notes: IgG1 kappa
For B5, the Kd (human IL-18BP) was 0.67 nM and the Kd (cynomolgus IL-18BP) was 0.78 nM.

B6: SA301a HC-I51A (antibody, name in Kabat numbering, V domains shown)
VH: QVQLQESGPGLVKPSQTLSLTCTVSGYSITSDYNSHWIRQPPGKGLEWIGYAHYSGSTNYNPSLKSRVTISRDTSKNQFSLKLSSVTAADTAVYYCARNYGSIYVNYFDYWGQGTLVTVSS
VL: EIVLTQSPATLSLSPGERATLSCSASSSVSYMYWYQQKPGQAPRPLIYRTSNLASGIPARFSGSGSGTDFTLTISSLEPEDFAVYYCQQYHSYPTFGGGTKVEIK
notes: IgG1 kappa
Binder B6 has a Kd (human IL-18BP) of 0.73 nM and a Kd (cynomolgus IL-18BP) of 0.81 nM.

B7: SA301a HC-I51R (antibody, name in Kabat numbering, V domains shown)
VH: QVQLQESGPGLVKPSQTLSLTCTVSGYSITSDYNSHWIRQPPGKGLEWIGYRHYSGSTNYNPSLKSRVTISRDTSKNQFSLKLSSVTAADTAVYYCARNYGSIYVNYFDYWGQGTLVTVSS
VL: EIVLTQSPATLSLSPGERATLSCSASSSVSYMYWYQQKPGQAPRPLIYRTSNLASGIPARFSGSGSGTDFTLTISSLEPEDFAVYYCQQYHSYPTFGGGTKVEIK
notes: IgG1 kappa
Work on B7 yielded a Kd (human IL-18BP) of 2 nM and a Kd (cynomolgus IL-18BP) of 1.57 nM.

B8: SA301a HC-I51E (antibody, name in Kabat numbering, V domains shown)
VH: QVQLQESGPGLVKPSQTLSLTCTVSGYSITSDYNSHWIRQPPGKGLEWIGYEHYSGSTNYNPSLKSRVTISRDTSKNQFSLKLSSVTAADTAVYYCARNYGSIYVNYFDYWGQGTLVTVSS
VL: EIVLTQSPATLSLSPGERATLSCSASSSVSYMYWYQQKPGQAPRPLIYRTSNLASGIPARFSGSGSGTDFTLTISSLEPEDFAVYYCQQYHSYPTFGGGTKVEIK
notes: IgG1 kappa
B8 showed a Kd (human IL-18BP) of 1.53 nM and a Kd (cynomolgus IL-18BP) of 0.95 nM.

B9: SA301a HC-I51M (antibody, name in Kabat numbering, V domains shown)
VH: QVQLQESGPGLVKPSQTLSLTCTVSGYSITSDYNSHWIRQPPGKGLEWIGYMHYSGSTNYNPSLKSRVTISRDTSKNQFSLKLSSVTAADTAVYYCARNYGSIYVNYFDYWGQGTLVTVSS
VL: EIVLTQSPATLSLSPGERATLSCSASSSVSYMYWYQQKPGQAPRPLIYRTSNLASGIPARFSGSGSGTDFTLTISSLEPEDFAVYYCQQYHSYPTFGGGTKVEIK
notes: IgG1 kappa
B9 showed a Kd (human IL-18BP) of 0.56 nM and a Kd (cynomolgus IL-18BP) of 0.62 nM.

B10: SA301a HC-I51L (antibody, name in Kabat numbering, V domains shown)
VH: QVQLQESGPGLVKPSQTLSLTCTVSGYSITSDYNSHWIRQPPGKGLEWIGYLHYSGSTNYNPSLKSRVTISRDTSKNQFSLKLSSVTAADTAVYYCARNYGSIYVNYFDYWGQGTLVTVSS
VL: EIVLTQSPATLSLSPGERATLSCSASSSVSYMYWYQQKPGQAPRPLIYRTSNLASGIPARFSGSGSGTDFTLTISSLEPEDFAVYYCQQYHSYPTFGGGTKVEIK
notes: IgG1 kappa
Work on B10 yielded a Kd (human IL-18BP) of 0.69 nM and a Kd (cynomolgus IL-18BP) of 0.64 nM.

B11: SA301a HC-I51K (antibody, name in Kabat numbering, V domains shown)
VH: QVQLQESGPGLVKPSQTLSLTCTVSGYSITSDYNSHWIRQPPGKGLEWIGYKHYSGSTNYNPSLKSRVTISRDTSKNQFSLKLSSVTAADTAVYYCARNYGSIYVNYFDYWGQGTLVTVSS
VL: EIVLTQSPATLSLSPGERATLSCSASSSVSYMYWYQQKPGQAPRPLIYRTSNLASGIPARFSGSGSGTDFTLTISSLEPEDFAVYYCQQYHSYPTFGGGTKVEIK
notes: IgG1 kappa
B11 gave a Kd (human IL-18BP) of 0.49 nM and a Kd (cynomolgus IL-18BP) of 0.59 nM.

B12: SA301a HC-I51S (antibody, name in Kabat numbering, V domains shown)
VH: QVQLQESGPGLVKPSQTLSLTCTVSGYSITSDYNSHWIRQPPGKGLEWIGYSHYSGSTNYNPSLKSRVTISRDTSKNQFSLKLSSVTAADTAVYYCARNYGSIYVNYFDYWGQGTLVTVSS
VL: EIVLTQSPATLSLSPGERATLSCSASSSVSYMYWYQQKPGQAPRPLIYRTSNLASGIPARFSGSGSGTDFTLTISSLEPEDFAVYYCQQYHSYPTFGGGTKVEIK
notes: IgG1 kappa
Binder B12 has a Kd (human IL-18BP) of 0.57 nM and a Kd (cynomolgus IL-18BP) of 0.82 nM.

B13: SA301a HC-I51G (antibody, name in Kabat numbering, V domains shown)
VH: QVQLQESGPGLVKPSQTLSLTCTVSGYSITSDYNSHWIRQPPGKGLEWIGYGHYSGSTNYNPSLKSRVTISRDTSKNQFSLKLSSVTAADTAVYYCARNYGSIYVNYFDYWGQGTLVTVSS
VL: EIVLTQSPATLSLSPGERATLSCSASSSVSYMYWYQQKPGQAPRPLIYRTSNLASGIPARFSGSGSGTDFTLTISSLEPEDFAVYYCQQYHSYPTFGGGTKVEIK
notes: IgG1 kappa
Binder B13 has a Kd (human IL-18BP) of 0.92 nM and a Kd (cynomolgus IL-18BP) of 0.87 nM.

B14: SA301a HC-I51Y (antibody, name in Kabat numbering, V domains shown)
VH: QVQLQESGPGLVKPSQTLSLTCTVSGYSITSDYNSHWIRQPPGKGLEWIGYYHYSGSTNYNPSLKSRVTISRDTSKNQFSLKLSSVTAADTAVYYCARNYGSIYVNYFDYWGQGTLVTVSS
VL: EIVLTQSPATLSLSPGERATLSCSASSSVSYMYWYQQKPGQAPRPLIYRTSNLASGIPARFSGSGSGTDFTLTISSLEPEDFAVYYCQQYHSYPTFGGGTKVEIK
notes: IgG1 kappa
With B14 the Kd (human IL-18BP) was 1.46 nM and the Kd (cynomolgus IL-18BP) was 1.27 nM.

B15: SA301a HC-I51F (antibody, name in Kabat numbering, V domains shown)
VH: QVQLQESGPGLVKPSQTLSLTCTVSGYSITSDYNSHWIRQPPGKGLEWIGYFHYSGSTNYNPSLKSRVTISRDTSKNQFSLKLSSVTAADTAVYYCARNYGSIYVNYFDYWGQGTLVTVSS
VL: EIVLTQSPATLSLSPGERATLSCSASSSVSYMYWYQQKPGQAPRPLIYRTSNLASGIPARFSGSGSGTDFTLTISSLEPEDFAVYYCQQYHSYPTFGGGTKVEIK
notes: IgG1 kappa
Work on B15 yielded a Kd (human IL-18BP) of 2.38 nM and a Kd (cynomolgus IL-18BP) of 1.55 nM.
